± gives the uncertainty stated by the source.
Test: self-splicing fitness, log relative to wild type (ln ratio); higher = more splicing; Tetrahymena group I intron in knt gene, E. coli kanamycin selection, DiMSum; sequences stand for … in CUCUCU…GGAGGGAAAAGUUAUCAGGCAUGCACCUGGUAGCUAGUCUUUAAACCAAUAGAUUGCAUCGGUUUAAAAGGCAAGACCGUCAAAUUGCGGGAAAGGGGUCAACAGCCGUUCAGUACCAAGUCUCAGGGGAAACUUUGAGAUGGCCUUGCAAAGGGUAUGGUAAUAAGCUGACGGACAUGGUCCUAACCACGCAGCCAAGUCCUAAGUCAACAGAUCUUCUGUUGAUAUGGAUGCAGUUCACAGACUAAAUGUCGGUCGGGGAAGAUGUAUUCUUCUCAUAAGAUAUAGUCGGACCUCUCCUUAAUGGGAGCUAGCGGAUGAAGUGAUGCAACACUGGAGCCGCUGGGAACUAAUUUGUAUGCGAAAGUAUAUUGAUUAGUUUUGGAGUACUCGUGGUCG
Outline: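 DiMSum derived fitness as the error-weighted combination of fold changes across replicates, kanamycin versus no kanamycin, normalised to wild type. E. coli BL21(DE3) held the library, which randomised all eight P1ex-region intron nucleotides within the knt kanamycin-resistance gene on pET-22b(+). Six replicate transformations grew overnight at 37°C or 30°C on LB agar with or without 25 μg/mL kanamycin, also containing 100 μg/mL carbenicillin, 50 μM IPTG and 0.2% rhamnose, and pooled colonies were amplicon-sequenced on an Illumina HiSeq 2500.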

| Sequence | self-splicing fitness (ln) (30 °C) | self-splicing fitness (ln) (37 °C) |
| --- | --- | --- |
| CACCAGCAAUAUUACGCACG | -0.655 ± 0.045 | 0.0962 ± 0.062 |
| UGGUAGCAAUAUUACGCUUG | -0.988 ± 0.092 | -0.402 ± 0.11 |
| CUCAAGCAAUAUUACGCAAA | -3.82 ± 0.31 | -2.47 ± 0.25 |
| AAUGAGCAAUAUUACGGCUC | -1.82 ± 0.23 | -2.03 ± 0.38 |
| GUCAAGCAAUAUUACGGGCU | -4.5 ± 0.25 | -4.77 ± 0.31 |
| GCCAAGCAAUAUUACGCGGU | -3.73 ± 0.2 | -3.25 ± 0.27 |
| GAUGAGCAAUAUUACGAGGA | -2.63 ± 0.17 | -2.89 ± 0.15 |
| AAGGAGCAAUAUUACGCACA | – | -1.89 ± 0.47 |
| CUCGAGCAAUAUUACGAAGU | -3.64 ± 0.43 | -1.84 ± 0.35 |
| AUUAAGCAAUAUUACGAUAU | -1.2 ± 0.081 | -0.415 ± 0.096 |
| UAUUAGCAAUAUUACGUAUA | -1.6 ± 0.18 | -2.03 ± 0.21 |
| CACGAGCAAUAUUACGGCCG | -0.354 ± 0.094 | -0.105 ± 0.13 |
| AGUCAGCAAUAUUACGAAAU | -1.76 ± 0.078 | -0.398 ± 0.094 |
| UCAUAGCAAUAUUACGAUGG | -3.32 ± 0.19 | -1.3 ± 0.17 |
| GUUAAGCAAUAUUACGAGCG | -1.54 ± 0.11 | -0.685 ± 0.13 |
| UAUGAGCAAUAUUACGCAAC | -2.22 ± 0.32 | -2.49 ± 0.44 |
| GCCGAGCAAUAUUACGGGAU | -2.03 ± 0.11 | -0.76 ± 0.13 |
| GAGCAGCAAUAUUACGCACC | -2.67 ± 0.39 | -1.82 ± 0.48 |
| GGAGAGCAAUAUUACGUGCC | – | -2.38 ± 0.42 |
| GCAGAGCAAUAUUACGGCAU | -3.03 ± 0.17 | -0.473 ± 0.11 |
| AACCAGCAAUAUUACGUCUG | -3.9 ± 0.17 | -2.54 ± 0.16 |
| UAAGAGCAAUAUUACGCAUA | -1.8 ± 0.39 | -1.59 ± 0.3 |
| CGUCAGCAAUAUUACGACCU | -0.193 ± 0.13 | 0.326 ± 0.15 |
| UGCAAGCAAUAUUACGCUAU | -2.7 ± 0.088 | -1.49 ± 0.088 |
| AGGAAGCAAUAUUACGCUGC | -3.38 ± 0.43 | – |
| GCUCAGCAAUAUUACGACCU | -0.614 ± 0.2 | -0.401 ± 0.21 |

| Sequence | self-splicing fitness (ln) (30 °C) | self-splicing fitness (ln) (37 °C) |
| --- | --- | --- |
| CCCGAGCAAUAUUACGAUUA | -3.04 ± 0.24 | -2.4 ± 0.21 |
| UAGCAGCAAUAUUACGGUAG | -1.07 ± 0.051 | -0.873 ± 0.067 |
| CGUAAGCAAUAUUACGACAC | -2.84 ± 0.14 | -2.55 ± 0.16 |
| GGUAAGCAAUAUUACGGAAA | -3.13 ± 0.35 | -0.547 ± 0.16 |
| AUGCAGCAAUAUUACGCUCC | -2.02 ± 0.29 | 0.0573 ± 0.36 |
| GCUAAGCAAUAUUACGGAUC | -0.406 ± 0.11 | -0.265 ± 0.17 |
| CACUAGCAAUAUUACGAAGC | – | -2.83 ± 0.35 |
| GUUGAGCAAUAUUACGUGGG | -3.09 ± 0.23 | -1.97 ± 0.18 |
| CGCAAGCAAUAUUACGGAUG | -1.2 ± 0.062 | -0.889 ± 0.073 |
| ACACAGCAAUAUUACGAGGU | -2.85 ± 0.13 | -2.04 ± 0.14 |
| AGGUAGCAAUAUUACGUAAU | -1.908 ± 0.015 | -0.958 ± 0.034 |
| AUAUAGCAAUAUUACGCAGG | -3.74 ± 0.31 | -1.69 ± 0.23 |
| ACUCAGCAAUAUUACGGAUA | -0.808 ± 0.15 | -0.834 ± 0.16 |
| CCCAAGCAAUAUUACGGCCA | -3.58 ± 0.31 | -1.58 ± 0.16 |
| GUUAAGCAAUAUUACGUUAA | -2.24 ± 0.17 | -1.79 ± 0.17 |
| UAUAAGCAAUAUUACGGACA | -0.702 ± 0.11 | 0.416 ± 0.13 |
| UUCGAGCAAUAUUACGAUUU | -4.18 ± 0.28 | -2.19 ± 0.2 |
| UAUAAGCAAUAUUACGUGGG | -2.83 ± 0.14 | -2.05 ± 0.12 |
| AGGUAGCAAUAUUACGAUGG | -3.633 ± 0.029 | -2.57 ± 0.042 |
| CGUGAGCAAUAUUACGGGCU | -1.5 ± 0.18 | -2.67 ± 0.39 |
| CAAGAGCAAUAUUACGGAGU | -3.12 ± 0.18 | -2.55 ± 0.22 |
| UGGGAGCAAUAUUACGUAUG | -3.01 ± 0.14 | -1.84 ± 0.22 |
| GUCUAGCAAUAUUACGUAUC | -0.834 ± 0.08 | 0.353 ± 0.11 |
| CGAAAGCAAUAUUACGAAUC | -2.03 ± 0.45 | -1.87 ± 0.26 |
| GUUGAGCAAUAUUACGGCUA | -0.763 ± 0.18 | -0.798 ± 0.19 |
| CAGAAGCAAUAUUACGUAGC | -3.8 ± 0.27 | -3.32 ± 0.28 |

| Sequence | self-splicing fitness (ln) (30 °C) | self-splicing fitness (ln) (37 °C) |
| --- | --- | --- |
| AUCUAGCAAUAUUACGCUUA | -1.44 ± 0.1 | -0.971 ± 0.096 |
| UCAUAGCAAUAUUACGUCAA | -2.44 ± 0.32 | – |
| UUUGAGCAAUAUUACGCAAG | -3.09 ± 0.34 | -1.51 ± 0.23 |
| AGAAAGCAAUAUUACGUAUU | -2.59 ± 0.13 | -1.27 ± 0.14 |
| CACAAGCAAUAUUACGAGCU | -3.48 ± 0.24 | -3.29 ± 0.3 |
| CGGCAGCAAUAUUACGAUAC | -3.21 ± 0.26 | -2.89 ± 0.31 |
| GCUGAGCAAUAUUACGGCCA | -2.02 ± 0.28 | -1.9 ± 0.38 |
| ACGAAGCAAUAUUACGAACU | -0.572 ± 0.084 | -0.697 ± 0.093 |
| CAAUAGCAAUAUUACGUCGU | -3.95 ± 0.23 | -2.49 ± 0.19 |
| UUAAAGCAAUAUUACGCCAG | 0.134 ± 0.17 | -1.25 ± 0.21 |
| UGUAAGCAAUAUUACGUACC | -1.07 ± 0.34 | -0.216 ± 0.26 |
| UAGAAGCAAUAUUACGCUAG | -1.18 ± 0.13 | -0.412 ± 0.16 |
| AGCAAGCAAUAUUACGGUAA | -2.53 ± 0.17 | -1.38 ± 0.12 |
| GAGUAGCAAUAUUACGCAGG | -3.04 ± 0.22 | -3.26 ± 0.24 |
| GUACAGCAAUAUUACGUAGG | -2.79 ± 0.15 | -0.471 ± 0.12 |
| UACCAGCAAUAUUACGUGUA | -2.59 ± 0.12 | -1.67 ± 0.1 |
| CAACAGCAAUAUUACGACCU | -1.18 ± 0.12 | -0.29 ± 0.12 |
| GGGCAGCAAUAUUACGACUA | -0.237 ± 0.094 | 0.125 ± 0.11 |
| UACCAGCAAUAUUACGCGCU | -3.47 ± 0.37 | -1.77 ± 0.22 |
| ACUUAGCAAUAUUACGGGGA | -1.38 ± 0.12 | -1.18 ± 0.15 |
| CGUCAGCAAUAUUACGGGAA | -3.68 ± 0.43 | -1.18 ± 0.18 |
| CAAUAGCAAUAUUACGAGUA | -2.31 ± 0.21 | -2.38 ± 0.2 |
| UCCAAGCAAUAUUACGAGAC | – | -2.23 ± 0.29 |
| UCUGAGCAAUAUUACGGUUA | -2.82 ± 0.18 | -2.05 ± 0.14 |
| AACUAGCAAUAUUACGUAGC | -4.04 ± 0.26 | -2.12 ± 0.21 |
